# Values quoted from earlier work as cited in publication PMC9241073.
# pKd: −log10 of the molar value. Where two headings read alike, the source gives them in different places.
# Assays:
# PAK1 (Homo sapiens) [1] = biological target: PAK1 (Homo sapiens) (UniProt Q13153)
# PAK1 (Homo sapiens) [2] = biological target: PAK1 (Homo sapiens) (UniProt Q13153); remark: listed apart in the source
# Sequence of UniProt Q13153 (Q13153 2-545): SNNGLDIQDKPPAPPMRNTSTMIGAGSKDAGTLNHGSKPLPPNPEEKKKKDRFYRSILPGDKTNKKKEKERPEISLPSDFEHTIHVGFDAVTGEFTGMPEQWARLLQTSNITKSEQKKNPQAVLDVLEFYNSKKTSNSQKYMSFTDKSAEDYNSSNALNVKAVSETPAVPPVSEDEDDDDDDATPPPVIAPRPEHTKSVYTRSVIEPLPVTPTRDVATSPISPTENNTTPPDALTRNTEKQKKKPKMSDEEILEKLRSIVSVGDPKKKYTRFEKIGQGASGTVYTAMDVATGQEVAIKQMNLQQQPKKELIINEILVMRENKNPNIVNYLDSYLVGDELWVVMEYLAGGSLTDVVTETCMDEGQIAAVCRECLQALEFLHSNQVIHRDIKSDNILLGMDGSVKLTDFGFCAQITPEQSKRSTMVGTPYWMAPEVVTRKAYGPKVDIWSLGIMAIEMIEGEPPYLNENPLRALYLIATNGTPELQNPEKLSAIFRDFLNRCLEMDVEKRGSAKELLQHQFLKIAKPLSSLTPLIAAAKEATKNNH
substance,measurement,setting,value
CDC42 (from UniProt P60953),pKd,PAK1 (Homo sapiens) [1],< 5.70
same,pKd,PAK1 (Homo sapiens) [2],< 6.00
